The experiment concerns the target CD44 variant carrying the epitope coded by exon v6 on human Langerhans cells and dendritic cells (human) (UniProt P16070).

VFF18 (antibody) displayed a binding of cultivated LCs and cytokine-activated DCs to paracortical T-cell zones of lymph node frozen sections of less than 66 % inhibition.

The values above are taken from US20020160010A1.
